Assay results as given in doi:10.1101/215541, “DHX36 binding at G-rich sites in mRNA untranslated regions promotes translation”.

T1: FH-DHX36 (RHAU, G4R1) (human (expressed in HEK293 T-REx Flp-In …, UniProt Q9H2U1 1-1008))
T1 sequence: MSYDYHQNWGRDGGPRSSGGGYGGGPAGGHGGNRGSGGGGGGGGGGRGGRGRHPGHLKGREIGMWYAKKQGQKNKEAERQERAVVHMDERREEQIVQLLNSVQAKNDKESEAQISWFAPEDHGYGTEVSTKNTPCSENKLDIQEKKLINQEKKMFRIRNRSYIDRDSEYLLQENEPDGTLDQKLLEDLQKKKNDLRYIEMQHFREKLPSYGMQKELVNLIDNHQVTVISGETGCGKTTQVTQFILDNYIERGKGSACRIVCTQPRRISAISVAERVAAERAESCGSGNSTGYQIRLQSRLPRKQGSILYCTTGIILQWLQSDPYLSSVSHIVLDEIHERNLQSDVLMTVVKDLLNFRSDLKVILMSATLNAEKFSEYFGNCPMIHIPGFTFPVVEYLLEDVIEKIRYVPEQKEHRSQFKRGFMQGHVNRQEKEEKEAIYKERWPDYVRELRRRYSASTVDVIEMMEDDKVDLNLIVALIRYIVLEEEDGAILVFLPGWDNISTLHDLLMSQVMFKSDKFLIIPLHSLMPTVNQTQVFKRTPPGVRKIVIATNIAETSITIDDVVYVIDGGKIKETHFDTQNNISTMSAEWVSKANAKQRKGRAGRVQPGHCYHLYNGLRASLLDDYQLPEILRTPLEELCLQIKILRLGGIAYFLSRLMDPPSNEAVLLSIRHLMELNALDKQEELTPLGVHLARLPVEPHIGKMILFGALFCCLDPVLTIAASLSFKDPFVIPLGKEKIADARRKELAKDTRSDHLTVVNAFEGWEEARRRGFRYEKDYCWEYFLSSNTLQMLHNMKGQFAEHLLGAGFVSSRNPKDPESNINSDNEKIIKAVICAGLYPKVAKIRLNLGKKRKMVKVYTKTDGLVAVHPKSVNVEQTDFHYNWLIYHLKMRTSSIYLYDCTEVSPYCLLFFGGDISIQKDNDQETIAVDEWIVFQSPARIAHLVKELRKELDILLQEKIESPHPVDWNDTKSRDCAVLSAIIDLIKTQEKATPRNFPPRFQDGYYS


Molecular target: T1, FH-DHX36 (RHAU, G4R1)
Test: MST; 25 nM oligonucleotide, DHX36 up to 50 nM; MST: 1x MST buffer (composition not stated), 0.5% BSA, 5 mM DTT; 25 nM Cy5 oligo (folding buffer for CD oligos: 10 mM Tris pH 7.5, 100 mM KCl, 1 mM EDTA); temperature not stated
Conditions: protein: recombinant, tags: N-terminal FLAG-HA (pFRT-FlagHA vector), label: 5'-Cy5

Row | Binder | binding result (parallel G4 (CD on the longer A10 version)) | binding result (no G4 signature (CD on the longer A10 version))
1 | AAAAAGGAGGAGGAGGAGGA (structured_DNA) [DHX36 RRE for MST (G-rich PAR-CLIP motif)] | binds | –
2 | AAAAAGCAGCAGGAGCAGCA (ssDNA) [mutated DHX36 RRE for MST] | – | no binding
